{
  "source": "paper PMC9849236",
  "key": {"SNAPf-mGLP1R (mouse)": {"molecular_target": "SNAPf-mGLP1R (mouse) (UniProt O35659)", "sequence (O35659 22-463)": "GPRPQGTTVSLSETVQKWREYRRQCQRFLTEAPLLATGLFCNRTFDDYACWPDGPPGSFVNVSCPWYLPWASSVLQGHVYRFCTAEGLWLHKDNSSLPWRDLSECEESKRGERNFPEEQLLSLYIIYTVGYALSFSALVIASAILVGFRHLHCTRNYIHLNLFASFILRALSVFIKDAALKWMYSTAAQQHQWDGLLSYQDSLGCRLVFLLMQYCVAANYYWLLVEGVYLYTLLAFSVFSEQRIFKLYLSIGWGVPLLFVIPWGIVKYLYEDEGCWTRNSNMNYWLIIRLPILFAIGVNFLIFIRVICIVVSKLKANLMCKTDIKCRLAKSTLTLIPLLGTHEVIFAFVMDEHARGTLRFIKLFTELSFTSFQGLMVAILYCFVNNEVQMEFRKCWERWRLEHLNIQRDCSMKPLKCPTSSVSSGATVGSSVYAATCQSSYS"}, "hGLP1R-GFP (human)": {"molecular_target": "hGLP1R-GFP (human) (UniProt P43220)"}, "SNAP-hGLP1R (human)": {"molecular_target": "SNAP-hGLP1R (human) (UniProt P43220)"}},
  "data": [
    {"substance": "Exendin4(1-39) (peptide)", "values": [
      {"measurement": "EC50 of Exendin4-induced cAMP generation (LANCE cAMP assay, transfected AD293 cells, 30 min with ligand + 100 µM IBMX)", "setting": "SNAPf-mGLP1R (mouse)", "value": 4.22, "unit": "pM"},
      {"measurement": "EC50 of Exendin4-induced cAMP generation (LANCE cAMP assay, transfected AD293 cells, 30 min with ligand + 100 µM IBMX)", "setting": "hGLP1R-GFP (human)", "value": 5, "unit": "pM"},
      {"measurement": "EC50 of Exendin4-induced cAMP generation (LANCE cAMP assay, transfected AD293 cells, 30 min with ligand + 100 µM IBMX)", "setting": "SNAP-hGLP1R (human)", "value": 8.02, "unit": "pM"}
    ]}
  ]
}
